Eleven molecules from US20210198366A1 can be followed below.

Positions count from the first letter of the chain named.

T1: cynomolgus monkey B7-H7 (soluble analyte in SPR) (cynomolgus monkey)
T1 sequence: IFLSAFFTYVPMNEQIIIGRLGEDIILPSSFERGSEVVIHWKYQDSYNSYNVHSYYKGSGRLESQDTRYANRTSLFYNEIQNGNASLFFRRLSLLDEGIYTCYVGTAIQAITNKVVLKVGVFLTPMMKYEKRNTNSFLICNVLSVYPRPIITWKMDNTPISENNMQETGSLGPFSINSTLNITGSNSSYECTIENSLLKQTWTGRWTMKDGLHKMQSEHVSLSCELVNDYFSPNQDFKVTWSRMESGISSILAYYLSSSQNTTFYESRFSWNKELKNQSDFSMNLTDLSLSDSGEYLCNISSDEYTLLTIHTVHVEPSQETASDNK

B1: anti-B7-H7 antibody 1D3 (antibody, V domains shown)
VH: EVQLQQSGPELEKPGASVKISCKASGYSFTGYNMNWVKESNGRSLEWIGNIDPYSGGSTYNQKFKGKATMTVDKSSSTAYMQLKSLTSEDSAVYYCARSVYDAPWLAHWGQGTLVTVSA
VL: DIQMTQSPASLSASVGETVTITCRASENIYIYLAWYQQKQGKSPQLLVYNAKTLAEGVPSRFSGSGSGTQFSLKINRLQPEDFGNYYCQHHYGTPPTFGGGTKLEIK
B2: anti-B7-H7 antibody 5B10 (antibody, V domains shown)
VH: B1 VH with E39Q, R43K, M70L, Y80S, M81L, A92S, V100F, W105Y, A107T, H108Y
VL: DIQMTQSPTSLSASVGETVTITCRASENIFIYLAWYQQKQGKSPQLLVFNAKTLAEGVPSRFSGSGSGTQFSLKINSLRPEDFGTYYCQHHYGTPPTFGGGTKLEV
B3: anti-B7-H7 antibody 5C9 (antibody, V domains shown)
VH: QVQLQQSGAELAKPGASVKMSCKASGYTFTSFWIHWIKQRPGQGLEWIGYIIPNTDYTEYNQKFKDKATFTADKSSSTAYMQLSSLTSEDSAVFYCARGLRGAYYFDYWGQGTTLTVSS
VL: DIVLTQSPASLAVSLGLRATISCRSSQSVSTSTNGYMHWYQQKPGQPPKLLIMYASNLESGVPARFSGSGSGTDFTLNIHPVDEEDTATYYCQHSWVLPYTFGGGTKLEIK
B4: anti-B7-H7 antibody 2F10 (antibody, V domains shown)
VH: EIQLQQTGPELVKPGASLRISCKASGYSFTDYIIVWVKQNQGKNLDWIEKINPYYGTTTYNLRFEDKATLTVNKSSTTAYMQLNSLTSEDSAVYYCARWDYVSTLFAMDYWGQGTSITVSS
VL: DIVMTQSHKVMSTSVGDRVSIICKASQDVGTAVAWYQQKPGQSPKLLIYWASTRHTGVPDRFTGSGSGTDFILTITNVQSENLANYFCQQYKRYYTFGGGTKLEIK
B5: anti-B7-H7 antibody 28F5 (antibody, V domains shown)
VH: QVQLKESGPGLVAPSQSLSITCTVSGFSLTGYGVNWVRQPPGKGLEWLGVIWGDGSTDYNSVLKSRLSISKDNSKSQVFLKMNSLQTDDTARYYCAREATEYLYWYFDVWGAGTTVTVSS
VL: DIVLTQSPASLAVSLGQRATISCRASESVEYYGSSLMQWYQQKPGQPPKLLIFAASNVESGVPPRFSGSGSGTDFNLNIHPVDEDDIAMYFCQQGRRVPWTFGGGTKLEIK
B6: anti-B7-H7 antibody 2D7 (antibody, V domains shown)
VH: EVQLQQSGPELVKPGASVKISCKTSGYTFTEYTMHWVKQSHGKSLEWIGGINPNNYGAPYNQKFKGKATLTVDKSSNTAYMELRSLTSEDSAIYYCASGGYYFDYWGQGTTLTVSS
VL: DIVMTQSHKFMSTSFGDRVSITCKASQDVGTAVAWYQQKLGQSPKLLISWAFTRHTGVPDRFTGSGSGTDYTLTISSLQAEDLALYYCQQHYDTPFTFGSGTKLEIK
B7: anti-B7-H7 antibody 3H6 (antibody, V domains shown)
VH: B6 VH with Y56G, N77S, I93V, S98R
VL: B6 VL with F15V, G30S, L40S, S49Y, F52S, L78V, S100G
B8: anti-B7-H7 antibody 16D5 (antibody, V domains shown)
VH: QVQLQQSAAELARPGASVKMSCKASGYTFTTYTMHWVKQRPGQGLEWIGYINPSRGYSDYSQKFQGKSTLTTDKSSNTAYIQLTSLTSEDSAVYFCARGGYDFDYWGQGTTLTVSS
VL: DIVMTQSHKFMSTSVGDRVSITCKASQDVGTAVAWYQQKPGQSPKLLLYWASTRHTGVPDRFTGSGSGTDYTLTISSVQAEDLALYHCQQHFITPYTFGGGTKLEIK
B9: anti-B7-H7 antibody 5F7 (antibody, V domains shown)
VH: QEQLQQPGTELVKPGASVKISCKASGYTFSSYSMHWVKLTPGQGLEWMGTIYPGNENTSYNQKFKGKATLTADKSSSTAYMQLSSLTSEDSAVYYCARGGYYFDYWGQGTTLTVSS
VL: B8 VL with M11L, G30S, L48I, P59S, Y71F, H87Y, I93D, T94I, T97W
B10: humanized anti-B7-H7 antibody Hz2D7 (antibody, human IgG1, kappa, V domains shown)
VH: QVQLVQSGAEVKKPGASVKVSCKTSGYTFTEYTMHWVRQAPGQGLEWMGGINPNNYGAPYNQKFKGRVTMTVDTSISTAYMELSRLRSDDTAVYYCASGGYYFDYWGQGTLVTVSS
VL: DIQMTQSPSSLSASVGDRVTITCKASQDVGTAVAWYQQKPGKAPKLLIYWAFTRHTGVPSRFSGSGSGTDYTLTISSLQPEDFATYYCQQHYDTPFTFGQGTKVEIKR
B11: chimeric 2D7 antibody comprising the murine heavy chain and light chain variable regions of 2D7 and a human Fc region (antibody, V domains shown)
VH: B6 VH
VL: B6 VL

One assay concerns the target T1, cynomolgus monkey B7-H7 (soluble analyte in SPR) (cynomolgus monkey). As to the kind of experiment: SPR (Biacore), antibody captured by anti-Fc on CM5 chip, B7-H7 injected, 37 C. A general note: In SPR one partner is held on a chip, and binding of the other changes the refractive index at the surface.
One may read the Kd as a measure of binding affinity in units of concentration. For B1, the Kd turned out to be 3.2 nM.

Molecule B2 gave a Kd of 4.6 nM.

Regarding B3, the Kd amounted to 4.8 nM.

For B4, the Kd stood at 8.6 nM.

In turn, B5 gave a Kd of 4.5 nM.

The molecule B6 returned a Kd of 0.6 nM.

The molecule B7 returned a Kd of 6.9 nM.

For B8, the Kd is 6.9 nM.

With B9, the Kd stood at 1.2 nM.

For the next assay the target is unchanged. As to the kind of experiment: SPR (Biacore).
For orientation: koff means the rate constant with which the complex falls apart. As for B10, the Kd turned out to be 0.4 nM and the koff is 7.6e-05 s⁻¹.

The molecule B6 showed a dissociation constant (Kd) of 0.65 nM and a koff of 0.00011 s⁻¹.

In turn, B11 displayed a Kd of 0.14 nM and a koff of 3.5e-05 s⁻¹.
